Test results reported in PMC13043812.

B1: unnamed (parent)
chain 1: MVTHELLVKAAGAVLTGLVGVSAYETLRKALGTAPIRRASVTVMEWGLRGTRRAEAAAESARLTVADVVAEARGRIGEEAPLPAGARVDE
chain 2: MTTVVDAEVQLTVVSDAAGRMRVQATGFQFDAGRAVAIEDTVGKVAGVQAVHAYPRTASIVIWYSRAICDTAAILSAIIDAETVPA

Variants of: B1
Settings: with partner chain of the complex shown; in M. smegmatis; parent: 100; read off a plot

First: chain 1 MVTHELLVKAAGAVLTGLVGVSAYETLRKALGTAPIRRASVTVMEWGLRGTRRAEAAAASARLTVADVVAEARGRIGEEAPLPAGARVDE [chain 1 E59A]
Second: chain 1 MVTHELLVKAAGAVLTGLVGVSAYETLRKALGTAPIRRASVTVMEWGLRGTRRAEAAAESARLTVADVVAAARGRIGEEAPLPAGARVDE [chain 1 E71A]
The response of the first is lower: 0.31 % GFP+ cells for the first, 8.5 % GFP+ cells for the second.

Work on chain 1 MVTHELLVKAAGAVLTGLVGVSAYETLRKALGTAPIRRASVTVMEWGLRGTRRAEAAAASARLTVADVVAAARGRIGEEAPLPAGARVDE [chain 1 E59A E71A] yielded a response of 0.015 % GFP+ cells.
